# Results published in IntAct's records for PubMed 29892012.
# B1: Coiled-coil alpha-helical rod protein 1 (Homo sapiens), Q8TD31 (parent)
# chain: MFPPSGSTGLIPPSHFQARPLSTLPRMAPTWLSDIPLVQPPGHQDVSERRLDTQRPQVTMWERDVSSDRQEPGRRGRSWGLEGSQALSQQAEVIVRQLQELRRLEEEVRLLRETSLQQKMRLEAQAMELEALARAEKAGRAEAEGLRAALAGAEVVRKNLEEGSQRELEEVQRLHQEQLSSLTQAHEEALSSLTSKAEGLEKSLSSLETRRAGEAKELAEAQREAELLRKQLSKTQEDLEAQVTLVENLRKYVGEQVPSEVHSQTWELERQKLLETMQHLQEDRDSLHATAELLQVRVQSLTHILALQEEELTRKVQPSDSLEPEFTRKCQSLLNRWREKVFALMVQLKAQELEHSDSVKQLKGQVASLQEKVTSQSQEQAILQRSLQDKAAEVEVERMGAKGLQLELSRAQEARRRWQQQTASAEEQLRLVVNAVSSSQIWLETTMAKVEGAAAQLPSLNNRLSYAVRKVHTIRGLIARKLALAQLRQESCPLPPPVTDVSLELQQLREERNRLDAELQLSARLIQQEVGRAREQGEAERQQLSKVAQQLEQELQQTQESLASLGLQLEVARQGQQESTEEAASLRQELTQQQELYGQALQEKVAEVETRLREQLSDTERRLNEARREHAKAVVSLRQIQRRAAQEKERSQELRRLQEEARKEEGQRLARRLQELERDKNLMLATLQQEGLLSRYKQQRLLTVLPSLLDKKKSVVSSPRPPECSASAPVAAAVPTRESIKGSLSVLLDDLQDLSEAISKEEAVCQGDNLDRCSSSNPQMSS
# partner: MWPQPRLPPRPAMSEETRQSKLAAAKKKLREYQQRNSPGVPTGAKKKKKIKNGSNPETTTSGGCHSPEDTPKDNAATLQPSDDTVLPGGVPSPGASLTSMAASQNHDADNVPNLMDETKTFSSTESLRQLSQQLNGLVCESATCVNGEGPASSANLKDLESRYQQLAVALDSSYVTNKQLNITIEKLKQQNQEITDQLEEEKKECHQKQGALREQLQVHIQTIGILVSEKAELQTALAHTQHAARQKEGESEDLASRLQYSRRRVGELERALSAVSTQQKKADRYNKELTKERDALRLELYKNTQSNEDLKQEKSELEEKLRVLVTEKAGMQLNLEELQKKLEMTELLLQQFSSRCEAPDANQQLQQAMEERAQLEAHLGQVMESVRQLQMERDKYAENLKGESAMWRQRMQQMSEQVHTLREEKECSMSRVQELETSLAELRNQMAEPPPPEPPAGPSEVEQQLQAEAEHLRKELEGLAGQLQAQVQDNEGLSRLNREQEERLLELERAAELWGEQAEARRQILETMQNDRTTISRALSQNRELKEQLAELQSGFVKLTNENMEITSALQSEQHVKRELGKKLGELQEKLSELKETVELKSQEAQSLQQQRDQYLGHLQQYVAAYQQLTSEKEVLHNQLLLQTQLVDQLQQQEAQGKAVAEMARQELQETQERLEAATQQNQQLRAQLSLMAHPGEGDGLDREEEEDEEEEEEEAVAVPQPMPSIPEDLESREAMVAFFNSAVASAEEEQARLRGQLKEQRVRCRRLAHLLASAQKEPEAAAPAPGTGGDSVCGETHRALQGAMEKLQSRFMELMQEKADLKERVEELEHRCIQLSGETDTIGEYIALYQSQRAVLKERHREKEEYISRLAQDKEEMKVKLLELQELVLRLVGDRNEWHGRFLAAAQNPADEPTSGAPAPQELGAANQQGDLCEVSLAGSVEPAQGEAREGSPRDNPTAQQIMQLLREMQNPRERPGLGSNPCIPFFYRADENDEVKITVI
# B2: Coiled-coil alpha-helical rod protein 1 (Homo sapiens), Q8TD31 (parent)
# chain: B1 chain
# partner: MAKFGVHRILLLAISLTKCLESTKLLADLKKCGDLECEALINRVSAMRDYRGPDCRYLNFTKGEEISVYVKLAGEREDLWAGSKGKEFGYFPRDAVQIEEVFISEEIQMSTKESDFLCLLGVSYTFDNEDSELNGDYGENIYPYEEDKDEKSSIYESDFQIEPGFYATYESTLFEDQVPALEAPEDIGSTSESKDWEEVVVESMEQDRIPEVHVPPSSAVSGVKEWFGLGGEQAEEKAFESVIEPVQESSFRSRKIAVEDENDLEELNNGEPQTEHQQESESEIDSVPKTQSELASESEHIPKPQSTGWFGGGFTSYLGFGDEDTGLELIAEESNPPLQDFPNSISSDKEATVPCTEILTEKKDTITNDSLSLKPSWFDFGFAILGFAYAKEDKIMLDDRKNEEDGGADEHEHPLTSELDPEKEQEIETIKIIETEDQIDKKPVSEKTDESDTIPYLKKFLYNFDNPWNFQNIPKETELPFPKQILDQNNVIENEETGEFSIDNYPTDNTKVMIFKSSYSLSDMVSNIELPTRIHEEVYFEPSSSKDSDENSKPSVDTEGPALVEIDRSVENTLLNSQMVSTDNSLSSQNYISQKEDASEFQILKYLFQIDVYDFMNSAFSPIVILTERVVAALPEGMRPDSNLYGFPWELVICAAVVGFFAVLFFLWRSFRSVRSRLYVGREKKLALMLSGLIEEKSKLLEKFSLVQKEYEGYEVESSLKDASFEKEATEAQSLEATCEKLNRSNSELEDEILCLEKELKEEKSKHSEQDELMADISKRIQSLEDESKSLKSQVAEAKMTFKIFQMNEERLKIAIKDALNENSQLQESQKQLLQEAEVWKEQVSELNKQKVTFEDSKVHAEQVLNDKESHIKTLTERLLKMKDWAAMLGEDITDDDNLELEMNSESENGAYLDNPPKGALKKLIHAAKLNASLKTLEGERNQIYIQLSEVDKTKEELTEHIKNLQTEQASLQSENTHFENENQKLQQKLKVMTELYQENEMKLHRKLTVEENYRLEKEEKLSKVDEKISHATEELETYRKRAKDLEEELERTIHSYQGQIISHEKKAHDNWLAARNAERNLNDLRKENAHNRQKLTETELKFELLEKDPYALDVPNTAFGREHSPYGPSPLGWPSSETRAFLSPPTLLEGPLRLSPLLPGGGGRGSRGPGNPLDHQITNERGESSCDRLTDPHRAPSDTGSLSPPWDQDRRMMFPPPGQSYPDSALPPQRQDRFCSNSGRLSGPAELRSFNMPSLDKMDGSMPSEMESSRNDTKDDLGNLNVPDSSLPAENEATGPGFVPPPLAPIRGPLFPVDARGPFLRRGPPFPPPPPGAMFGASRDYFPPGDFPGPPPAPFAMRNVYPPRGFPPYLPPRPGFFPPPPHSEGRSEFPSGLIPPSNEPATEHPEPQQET
# B3: Coiled-coil alpha-helical rod protein 1 (Homo sapiens), Q8TD31 (parent)
# chain: B1 chain
# partner: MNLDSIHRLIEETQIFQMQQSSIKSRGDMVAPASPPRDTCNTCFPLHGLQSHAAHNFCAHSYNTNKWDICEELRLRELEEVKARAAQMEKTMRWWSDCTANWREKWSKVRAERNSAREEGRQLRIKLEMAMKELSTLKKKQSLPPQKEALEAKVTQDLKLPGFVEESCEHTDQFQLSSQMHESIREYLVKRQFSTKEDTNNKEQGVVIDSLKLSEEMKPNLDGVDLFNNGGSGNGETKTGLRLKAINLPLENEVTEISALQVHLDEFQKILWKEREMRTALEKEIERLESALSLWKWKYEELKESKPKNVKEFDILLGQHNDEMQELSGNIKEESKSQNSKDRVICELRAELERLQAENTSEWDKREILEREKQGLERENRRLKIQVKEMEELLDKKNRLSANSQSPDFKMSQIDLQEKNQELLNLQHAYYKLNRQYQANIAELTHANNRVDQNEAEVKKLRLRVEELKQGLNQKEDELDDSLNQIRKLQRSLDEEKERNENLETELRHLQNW
# B4: Chorion-specific transcription factor GCMb (Homo sapiens), O75603 (parent)
# chain: MPAAAVQEAVGVCSYGMQLSWDINDPQMPQELALFDQFREWPDGYVRFIYSSDEKKAQRHLSGWAMRNTNNHNGHILKKSCLGVVVCTQACTLPDGSRLQLRPAICDKARLKQQKKACPNCHSALELIPCRGHSGYPVTNFWRLDGNAIFFQAKGVHDHPRPESKSETEARRSAIKRQMASFYQPQKKRIRESEAEENQDSSGHFSNIPPLENPEDFDIVTETSFPIPGQPCPSFPKSDVYKATCDLATFQGDKMPPFQKYSSPRIYLPRPPCSYELANPGYTNSSPYPTLYKDSTSIPNDTDWVHLNTLQCNVNSYSSYERSFDFTNKQHGWKPALGKPSLVERTNHGQFQAMATRPYYNPELPCRYLTTPPPGAPALQTVITTTTKVSYQAYQPPAMKYSDSVREVKSLSSCNYAPEDTGMSVYPEPWGPPVTVTRAASPSGPPPMKIAGDCRAIRPTVAIPHEPVSSRTDEAETWDVCLSGLGSAVSYSDRVGPFFTYNNEDF
# B5: Chorion-specific transcription factor GCMb (Homo sapiens), O75603 (parent)
# chain: B4 chain
# partner: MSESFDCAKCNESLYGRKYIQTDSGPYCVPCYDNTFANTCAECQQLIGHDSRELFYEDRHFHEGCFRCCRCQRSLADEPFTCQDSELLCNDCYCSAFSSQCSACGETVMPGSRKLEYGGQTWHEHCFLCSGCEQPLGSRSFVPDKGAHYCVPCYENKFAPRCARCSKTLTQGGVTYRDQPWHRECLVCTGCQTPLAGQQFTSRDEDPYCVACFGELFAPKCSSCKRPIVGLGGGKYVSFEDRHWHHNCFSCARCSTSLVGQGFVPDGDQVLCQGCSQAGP
# Variants of: B1
# Conditions: with goga2_human GOLGA2, Q08379
row,Variant,effect of a mutation on the interaction
1,W337R,disrupting interaction strength

# Variants of: B2
# Conditions: with mia2_human MIA2, Q96PC5
row,Variant,effect of a mutation on the interaction
1,W337R,disrupting interaction strength

# Variants of: B3
# Conditions: with CCDC102B
row,Variant,effect of a mutation on the interaction
1,W337R,disrupting interaction strength

# Variants of: B4
# Conditions: with crx_human CRX
row,Variant,effect of a mutation on the interaction
1,MPAAAVQEAVGVCSYGMQLSWDINDPQMPQELALFDQFREWPDGYVRFIYSSDEKKAQRHLSGWAMRNTNNHNGHILKKSCLGVVVCTQACTLPDGSRLQLRPAICDKARLKQQKKACPNCHSALELIPCRGHSGYPVTNFWRLDGNAIFFQAKGVHDHPRPESKSETEARRSAIKRQMASFYQPQKKRIRESEAEENQDSSGHFSNIPPLENPEDFDIVTETSFPIPGQPCPSFPKSDVYKATCDLATFQGDKMPPFQKYSSPRIYLPRPPCSYELANPGYTNSSPYPTLYKDSTSIPNDTDWVHLNTLQCNVNSYSSYERSFDFTNKQHGWKPALGKPSLVERTNHEQFQAMATRPYYNPELPCRYLTTPPPGAPALQTVITTTTKVSYQAYQPPAMKYSDSVREVKSLSSCNYAPEDTGMSVYPEPWGPPVTVTRAASPSGPPPMKIAGDCRAIRPTVAIPHEPVSSRTDEAETWDVCLSGLGSAVSYSDRVGPFFTYNNEDF [G349E],with no effect

# Variants of: B4
# Conditions: with rbpms_human RBPMS
row,Variant,effect of a mutation on the interaction
1,MPAAAVQEAVGVCSYGMQLSWDINDPQMPQELALFDQFREWPDGYVRFIYSSDEKKAQRHLSGWAMRNTNNHNGHILKKSCLGVVVCTQACTLPDGSRLQLRPAICDKARLKQQKKACPNCHSALELIPCRGHSGYPVTNFWRLDGNAIFFQAKGVHDHPRPESKSETEARRSAIKRQMASFYQPQKKRIRESEAEENQDSSGHFSNIPPLENPEDFDIVTETSFPIPGQPCPSFPKSDVYKATCDLATFQGDKMPPFQKYSSPRIYLPRPPCSYELANPGYTNSSPYPTLYKDSTSIPNDTDWVHLNTLQCNVNSYSSYERSFDFTNKQHGWKPALGKPSLVERTNHEQFQAMATRPYYNPELPCRYLTTPPPGAPALQTVITTTTKVSYQAYQPPAMKYSDSVREVKSLSSCNYAPEDTGMSVYPEPWGPPVTVTRAASPSGPPPMKIAGDCRAIRPTVAIPHEPVSSRTDEAETWDVCLSGLGSAVSYSDRVGPFFTYNNEDF [G349E],with no effect

# Variants of: B5
# Conditions: with fhl3_human FHL3, Q13643
row,Variant,effect of a mutation on the interaction
1,MPAAAVQEAVGVCSYGMQLSWDINDPQMPQELALFDQFREWPDGYVRFIYSSDEKKAQRHLSGWAMRNTNNHNGHILKKSCLGVVVCTQACTLPDGSRLQLRPAICDKARLKQQKKACPNCHSALELIPCRGHSGYPVTNFWRLDGNAIFFQAKGVHDHPRPESKSETEARRSAIKRQMASFYQPQKKRIRESEAEENQDSSGHFSNIPPLENPEDFDIVTETSFPIPGQPCPSFPKSDVYKATCDLATFQGDKMPPFQKYSSPRIYLPRPPCSYELANPGYTNSSPYPTLYKDSTSIPNDTDWVHLNTLQCNVNSYSSYERSFDFTNKQHGWKPALGKPSLVERTNHEQFQAMATRPYYNPELPCRYLTTPPPGAPALQTVITTTTKVSYQAYQPPAMKYSDSVREVKSLSSCNYAPEDTGMSVYPEPWGPPVTVTRAASPSGPPPMKIAGDCRAIRPTVAIPHEPVSSRTDEAETWDVCLSGLGSAVSYSDRVGPFFTYNNEDF [G349E],with no effect
